{"source": "patent US20140323392A1", "key": {"[1]": {"target": "HIV-1 HXB2 envelope glycoprotein gp41 (N-trimer of the prehairpin intermediate) (HIV-1 strain HXB2) (UniProt P04578)", "assay": "cell-based or functional assay"}, "[2]": {"target": "HIV-1 JRFL envelope glycoprotein gp41 (N-trimer of the prehairpin intermediate) (HIV-1 strain JRFL)", "assay": "cell-based or functional assay"}}}
{"substance": "C34-PEG80-Chol (from UniProt P04578 628-661) (peptide)", "values": [{"measurement": "IC50, HXB2 pseudovirion entry", "setting": "[1]", "value": 0.022, "unit": "nM"}, {"measurement": "IC50, JRFL pseudovirion entry", "setting": "[2]", "value": 0.1, "unit": "nM"}]}
{"substance": "C34 (from UniProt P04578 628-661) (peptide)", "values": [{"measurement": "IC50, HXB2 pseudovirion entry", "setting": "[1]", "value": 1.4, "unit": "nM"}, {"measurement": "IC50, JRFL pseudovirion entry", "setting": "[2]", "value": 13.4, "unit": "nM"}]}
{"substance": "C34-PEG11-Chol (from UniProt P04578 628-661) (peptide)", "values": [{"measurement": "IC50, HXB2 pseudovirion entry", "setting": "[1]", "value": 0.021, "unit": "nM"}, {"measurement": "IC50, JRFL pseudovirion entry", "setting": "[2]", "value": 0.024, "unit": "nM"}]}
{"substance": "C34-PEG2-Chol (from UniProt P04578 628-661) (peptide)", "values": [{"measurement": "IC50, HXB2 pseudovirion entry", "setting": "[1]", "value": 0.044, "unit": "nM"}, {"measurement": "IC50, JRFL pseudovirion entry", "setting": "[2]", "value": 0.05, "unit": "nM"}]}
